Our source for the pKd values is paper PMC9482650, “Quantitative fragmentomics allow affinity mapping of interactomes” (Nature Communications, 2022).

In general, pKd refers to the negative decadic logarithm of the Kd, by convention in mol/L.

Among the targets are DLG2_3, Q15700; DLG5_1, Q8TDM6; GRID2IP_2, A4D2P6; GRIP2_5, Q9C0E4; IL16_1, Q14005; IL16_3, Q14005; Inadl_4, Q8NI35; MAST1, Q9Y2H9; NHERF2_2, Q15599; PARD3_3, Q8TEW0.
Holding throughout (experiment): holdup assay
Common to all, as to set-up: key: below the threshold = too weak to quantify, mostly under pKd 3.1 to 4

Another assay concerns the target T1, APBA1_1, Q02410.
T1 sequence (Q02410 651-752, limits assumed, looked up): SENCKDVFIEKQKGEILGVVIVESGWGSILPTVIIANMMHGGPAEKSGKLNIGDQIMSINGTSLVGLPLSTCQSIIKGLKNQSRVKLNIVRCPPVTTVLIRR

The target of the next assay is T2, APBA1_2, Q02410.
T2 sequence (Q02410 742-832, limits assumed, looked up): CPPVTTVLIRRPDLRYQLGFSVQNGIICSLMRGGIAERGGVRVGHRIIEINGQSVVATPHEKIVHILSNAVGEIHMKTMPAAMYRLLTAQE

The next assay deals with T3, APBA2_2, Q99767.
T3 sequence (Q99767 654-744, limits assumed, looked up): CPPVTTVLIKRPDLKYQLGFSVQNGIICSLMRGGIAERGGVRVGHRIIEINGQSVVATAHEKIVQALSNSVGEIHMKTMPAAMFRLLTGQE

A further assay has as its target T4, ARHGEF11, O15085.
T4 sequence (O15085 42-136, limits assumed, looked up): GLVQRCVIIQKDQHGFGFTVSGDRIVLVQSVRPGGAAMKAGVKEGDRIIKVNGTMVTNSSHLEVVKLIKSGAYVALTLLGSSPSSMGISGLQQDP

The next assay has as its target T5, DFNB31_1, Q9P202.
T5 sequence (Q9P202 135-233, limits assumed, looked up): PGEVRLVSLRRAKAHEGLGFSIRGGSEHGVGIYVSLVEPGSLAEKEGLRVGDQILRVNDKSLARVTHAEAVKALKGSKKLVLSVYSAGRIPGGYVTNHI

For another assay, the target named is T6, DLG3_3, Q92796.
T6 sequence (Q92796 374-475, limits assumed, looked up): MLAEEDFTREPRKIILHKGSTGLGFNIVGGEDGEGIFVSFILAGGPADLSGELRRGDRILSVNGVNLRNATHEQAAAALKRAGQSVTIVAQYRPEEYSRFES

For another assay, the target named is T7, GRIP1_2, Q9Y3R0.
T7 sequence (Q9Y3R0 145-248, limits assumed, looked up): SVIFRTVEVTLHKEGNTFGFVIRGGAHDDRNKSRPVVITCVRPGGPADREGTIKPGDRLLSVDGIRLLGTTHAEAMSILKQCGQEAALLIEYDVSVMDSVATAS

In a further assay the target is T8, GRIP1_3, Q9Y3R0.
T8 sequence (Q9Y3R0 247-346, limits assumed, looked up): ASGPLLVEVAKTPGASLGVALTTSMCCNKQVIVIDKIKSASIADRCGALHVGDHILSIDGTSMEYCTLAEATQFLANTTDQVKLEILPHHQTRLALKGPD

In another assay the target is T9, GRIP1_4, Q9Y3R0.
T9 sequence (Q9Y3R0 467-571, limits assumed, looked up): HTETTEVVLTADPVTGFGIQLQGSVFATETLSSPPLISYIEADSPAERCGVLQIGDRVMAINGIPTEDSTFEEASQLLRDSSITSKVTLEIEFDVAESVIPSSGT

A further assay addresses T10, HTRA4, P83105.
T10 sequence (P83105 378-476, limits assumed, looked up): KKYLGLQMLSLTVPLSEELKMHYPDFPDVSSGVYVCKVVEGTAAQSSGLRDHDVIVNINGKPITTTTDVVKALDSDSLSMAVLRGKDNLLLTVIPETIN

The next assay has as its target T11, MPP6, Q9NZW5.
T11 sequence (Q9NZW5 125-219, limits assumed, looked up): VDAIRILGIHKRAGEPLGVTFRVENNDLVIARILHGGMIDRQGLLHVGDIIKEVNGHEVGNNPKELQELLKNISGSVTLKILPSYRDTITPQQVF

For another assay, the target named is T12, MPP7, Q5T2T1.
T12 sequence (Q5T2T1 134-230, limits assumed, looked up): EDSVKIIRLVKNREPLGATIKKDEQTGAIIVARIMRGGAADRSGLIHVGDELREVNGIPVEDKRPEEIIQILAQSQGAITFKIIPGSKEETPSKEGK

Another assay addresses T13, PDZD7_3, Q9H5P4.
T13 sequence (Q9H5P4 857-944, limits assumed, looked up): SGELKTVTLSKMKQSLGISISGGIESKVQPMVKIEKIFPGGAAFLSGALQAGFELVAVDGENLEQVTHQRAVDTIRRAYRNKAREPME

The target of another assay is T14, SNTG2, Q9NY99.
T14 sequence (Q9NY99 68-166, limits assumed, looked up): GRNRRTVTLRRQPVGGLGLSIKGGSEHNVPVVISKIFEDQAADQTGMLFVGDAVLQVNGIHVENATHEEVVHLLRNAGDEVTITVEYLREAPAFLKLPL

The mark [1] stands for this setting: plain residues with an end cap or a label only (N-terminal biotin on a linker: ahx).
Setting [2] is: plain residues with an end cap or a label only (N-terminal biotin on a linker: (peg)3).
[3] abbreviates: plain residues with an end cap or a label only (N-terminal biotin on a linker: ado-ado).

IL16_3, Q14005, sequence (Q14005 1107-1207): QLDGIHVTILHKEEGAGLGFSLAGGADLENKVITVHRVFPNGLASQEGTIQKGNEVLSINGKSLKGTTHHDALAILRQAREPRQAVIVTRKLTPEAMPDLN
GRIP2_5, Q9C0E4, sequence (Q9C0E4 544-642): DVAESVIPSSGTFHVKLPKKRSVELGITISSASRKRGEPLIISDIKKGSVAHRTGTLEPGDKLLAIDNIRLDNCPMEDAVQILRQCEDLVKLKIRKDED
NHERF2_2, Q15599, sequence (Q15599 142-238): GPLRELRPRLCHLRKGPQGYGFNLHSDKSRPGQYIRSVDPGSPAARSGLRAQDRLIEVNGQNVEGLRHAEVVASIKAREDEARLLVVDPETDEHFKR
MAST1, Q9Y2H9, sequence (Q9Y2H9 962-1065): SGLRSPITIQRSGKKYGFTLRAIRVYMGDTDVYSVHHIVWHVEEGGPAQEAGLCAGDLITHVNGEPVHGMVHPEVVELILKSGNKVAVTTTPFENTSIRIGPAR
Inadl_4, Q8NI35, sequence (Q8NI35 547-651): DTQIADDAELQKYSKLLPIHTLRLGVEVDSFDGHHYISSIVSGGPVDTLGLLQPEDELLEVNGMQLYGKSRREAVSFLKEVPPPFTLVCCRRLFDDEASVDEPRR
DLG5_1, Q8TDM6, sequence (Q8TDM6 617-713): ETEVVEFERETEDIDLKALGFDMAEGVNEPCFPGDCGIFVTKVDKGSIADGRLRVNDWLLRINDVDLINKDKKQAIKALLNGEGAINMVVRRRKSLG
GRID2IP_2, A4D2P6, sequence (A4D2P6 272-370): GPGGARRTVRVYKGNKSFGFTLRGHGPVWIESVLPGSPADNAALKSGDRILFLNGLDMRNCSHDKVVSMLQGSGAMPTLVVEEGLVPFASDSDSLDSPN
IL16_1, Q14005, sequence (Q14005 210-306): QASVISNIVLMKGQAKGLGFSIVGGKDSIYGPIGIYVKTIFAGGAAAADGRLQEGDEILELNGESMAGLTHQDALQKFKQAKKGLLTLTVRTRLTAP
PARD3_3, Q8TEW0, sequence (Q8TEW0 582-685): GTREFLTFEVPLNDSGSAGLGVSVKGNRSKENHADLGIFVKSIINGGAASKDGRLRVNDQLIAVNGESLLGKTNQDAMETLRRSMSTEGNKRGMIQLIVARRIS

Consider QDEKVKESYV [ABCA1, O95477], for which the pKd result is “below the threshold” with APBA1_1, Q02410 (setting [1]); 4.29 with APBA1_2, Q02410 (setting [1]); “below the threshold” with APBA2_2, Q99767 (setting [1]); 4.3 with ARHGEF11, O15085 (setting [1]); 3.88 in the assay with DFNB31_1, Q9P202 (setting [1]); 4.63 in the assay with DLG2_3, Q15700 (setting [1]). The pKd in the assay with DLG3_3, Q92796 (setting [1]) was 3.97; with DLG5_1, Q8TDM6 (setting [1]) it was “below the threshold”; in the assay with GRID2IP_2, A4D2P6 (setting [1]) it was 3.97; with GRIP1_2, Q9Y3R0 (setting [1]) it was “below the threshold”; with GRIP1_3, Q9Y3R0 (setting [1]), “below the threshold”; with GRIP1_4, Q9Y3R0 (setting [1]), “below the threshold”. Further, the pKd result was “below the threshold” with GRIP2_5, Q9C0E4 (setting [1]); “below the threshold” in the assay with HTRA4, P83105 (setting [1]); 4.91 with IL16_1, Q14005 (setting [1]); “below the threshold” in the assay with IL16_3, Q14005 (setting [1]); “below the threshold” with Inadl_4, Q8NI35 (setting [1]); 4.16 with MAST1, Q9Y2H9 (setting [1]). Also, the pKd entry in the assay with MPP6, Q9NZW5 (setting [1]) is “below the threshold”; with MPP7, Q5T2T1 (setting [1]) it was “below the threshold”; in the assay with NHERF2_2, Q15599 (setting [1]) it was 3.64; with PARD3_3, Q8TEW0 (setting [1]), “below the threshold”; in the assay with PDZD7_3, Q9H5P4 (setting [1]), 5.35; in the assay with SNTG2, Q9NY99 (setting [1]) it was 5.06.

In the case of RYEDTTLVEDTVL [WNV-NS5, Q9Q6P4], the pKd result in the assay with APBA1_1, Q02410 (setting [2]) is “below the threshold”; with APBA1_2, Q02410 (setting [2]) it was “below the threshold”; with APBA2_2, Q99767 (setting [2]) it was “below the threshold”; in the assay with ARHGEF11, O15085 (setting [2]) it was 3.99; with DFNB31_1, Q9P202 (setting [2]) it was 3.83; in the assay with DLG2_3, Q15700 (setting [2]) it was “below the threshold”. Moreover, the pKd entry in the assay with DLG3_3, Q92796 (setting [2]) is “below the threshold”; with DLG5_1, Q8TDM6 (setting [2]), “below the threshold”; in the assay with GRID2IP_2, A4D2P6 (setting [2]) it was 3.72; with GRIP1_2, Q9Y3R0 (setting [2]) it was “below the threshold”; with GRIP1_3, Q9Y3R0 (setting [2]), “below the threshold”; in the assay with GRIP1_4, Q9Y3R0 (setting [2]), “below the threshold”. Moreover, the pKd entry is “below the threshold” with GRIP2_5, Q9C0E4 (setting [2]); “below the threshold” in the assay with HTRA4, P83105 (setting [2]); “below the threshold” with IL16_1, Q14005 (setting [2]); “below the threshold” in the assay with IL16_3, Q14005 (setting [2]); “below the threshold” in the assay with Inadl_4, Q8NI35 (setting [2]); 4.3 with MAST1, Q9Y2H9 (setting [2]). For the same molecule, the pKd entry was “below the threshold” with MPP6, Q9NZW5 (setting [2]); “below the threshold” in the assay with MPP7, Q5T2T1 (setting [2]); 4.89 in the assay with NHERF2_2, Q15599 (setting [2]); 4.53 in the assay with PARD3_3, Q8TEW0 (setting [2]); 4.54 with PDZD7_3, Q9H5P4 (setting [2]); 4 with SNTG2, Q9NY99 (setting [2]).

Regarding QRPYRRGSEI [KCNJ18, B7U540], the negative logarithm of the Kd (pKd) result is “below the threshold” with APBA1_1, Q02410 (setting [3]); 3.53 with APBA1_2, Q02410 (setting [3]); “below the threshold” with APBA2_2, Q99767 (setting [3]); “below the threshold” with ARHGEF11, O15085 (setting [3]); 3.9 in the assay with DFNB31_1, Q9P202 (setting [3]); 3.91 in the assay with DLG2_3, Q15700 (setting [3]). Also, the pKd entry with DLG3_3, Q92796 (setting [3]) was “below the threshold”; with DLG5_1, Q8TDM6 (setting [3]), “below the threshold”; with GRID2IP_2, A4D2P6 (setting [3]) it was 3.71; with GRIP1_2, Q9Y3R0 (setting [3]) it was “below the threshold”; with GRIP1_3, Q9Y3R0 (setting [3]) it was “below the threshold”; in the assay with GRIP1_4, Q9Y3R0 (setting [3]) it was “below the threshold”. Also, the pKd result in the assay with GRIP2_5, Q9C0E4 (setting [3]) was “below the threshold”; with HTRA4, P83105 (setting [3]), “below the threshold”; with IL16_1, Q14005 (setting [3]) it was 3.61; with IL16_3, Q14005 (setting [3]), “below the threshold”; with Inadl_4, Q8NI35 (setting [3]), “below the threshold”; with MAST1, Q9Y2H9 (setting [3]), “below the threshold”. Also, the pKd result with MPP6, Q9NZW5 (setting [3]) was “below the threshold”; with MPP7, Q5T2T1 (setting [3]), “below the threshold”; with NHERF2_2, Q15599 (setting [3]), “below the threshold”; with PARD3_3, Q8TEW0 (setting [3]) it was “below the threshold”; in the assay with PDZD7_3, Q9H5P4 (setting [3]), “below the threshold”; with SNTG2, Q9NY99 (setting [3]), “below the threshold”.

For the molecule NISYRRESAI [KCNJ4, P48050], the pKd entry with APBA1_1, Q02410 (setting [3]) was “below the threshold”; with APBA1_2, Q02410 (setting [3]), “below the threshold”; with APBA2_2, Q99767 (setting [3]), “below the threshold”; with ARHGEF11, O15085 (setting [3]) it was “below the threshold”; in the assay with DFNB31_1, Q9P202 (setting [3]), 4.29; in the assay with DLG2_3, Q15700 (setting [3]), 4.36. For the same molecule, the negative logarithm of the Kd (pKd) with DLG3_3, Q92796 (setting [3]) is 3.98; with DLG5_1, Q8TDM6 (setting [3]) it was “below the threshold”; in the assay with GRID2IP_2, A4D2P6 (setting [3]) it was 3.51; in the assay with GRIP1_2, Q9Y3R0 (setting [3]), “below the threshold”; in the assay with GRIP1_3, Q9Y3R0 (setting [3]), “below the threshold”; in the assay with GRIP1_4, Q9Y3R0 (setting [3]) it was “below the threshold”. Further, the negative-log Kd (pKd) entry was “below the threshold” with GRIP2_5, Q9C0E4 (setting [3]); “below the threshold” in the assay with HTRA4, P83105 (setting [3]); 3.55 with IL16_1, Q14005 (setting [3]); “below the threshold” with IL16_3, Q14005 (setting [3]); “below the threshold” with Inadl_4, Q8NI35 (setting [3]); 4.06 with MAST1, Q9Y2H9 (setting [3]). In addition, the pKd entry is “below the threshold” with MPP6, Q9NZW5 (setting [3]); “below the threshold” with MPP7, Q5T2T1 (setting [3]); “below the threshold” with NHERF2_2, Q15599 (setting [3]); “below the threshold” in the assay with PARD3_3, Q8TEW0 (setting [3]); 4.05 with PDZD7_3, Q9H5P4 (setting [3]); “below the threshold” with SNTG2, Q9NY99 (setting [3]).
